Results from US20250289888A1 (GIGAGEN, published 2025).
Changes are numbered by the printed parent chain.

B1: GIGA-564 (antibody, V domains shown)
VH: QVQLVESGGGVVQPGRSLRLSCAASGFTFSSYGMHWVRQAPGTGLEWVAVIWYEGRNKYYADPVKGRFTISRDNSKNTLYLQMNSLRDDDTAVYYCARAGDLGAFDIWGQGTMVTVSSA
VL: not shown
notes: fucosylation differs between lots (77-95 %); also called antibody A14; aCTLA-4.15
B2: antibody A9 (antibody, human IgG1, V domains shown)
VH: QVQLVESGGGVVQPGRSLRLSCAASGFTFSSHGMHWVRQAPGKGLEWVAVIWYDGSNKHYADSVKGRFTISRDNSKNTLYLQMNSLRAEDTAVYYCARGDILTGYYGYWGQGTLVTVSS
VL: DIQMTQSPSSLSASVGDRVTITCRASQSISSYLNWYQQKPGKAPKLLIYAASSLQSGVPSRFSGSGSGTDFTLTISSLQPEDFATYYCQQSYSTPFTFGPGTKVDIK
notes: full-length human IgG1 (CHO); also called aCTLA-4.24; L9H9
B3: Ipilimumab analog (antibody, human IgG1, V domains shown)
VH: QVQLVESGGGVVQPGRSLRLSCAASGFTFSSYTMHWVRQAPGKGLEWVTFISYDGNNKYYADSVKGRFTISRDNSKNTLYLQMNSLRAEDTAIYYCARTGWLGPFDYWGQGTLVTVSSA
VL: not shown
notes: also called Ipi analog; in-house produced ipilimumab
B4: antibody A6 (antibody, human IgG1, V domains shown)
VH: QVQLVESGGGVVQPGRSLRLSCAASGFTFSSYGMHWVRQAPGKGLEWVAVIWYDGSYKYYADSVKGRFTISRDDSKNTLYLQMSSLRAEDTAVYYCARAPHYAILTGYYEDYWGQGTLVTVSS
VL: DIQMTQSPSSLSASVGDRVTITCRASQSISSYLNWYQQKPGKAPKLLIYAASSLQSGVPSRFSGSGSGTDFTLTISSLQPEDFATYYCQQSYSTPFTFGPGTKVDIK
B5: antibody A2 (antibody, human IgG1, V domains shown)
VH: QVQLVESGGGVVQPGRSLRLSCAASGFTFSNYGMNWVRQAPGKGLEWVAVIWYDGRNKHYADSVKGRFTISRDNSKNTLYLQMNSLRAEDTAVYYCARGGDWGPYFDYWGQGTLVTVSS
VL: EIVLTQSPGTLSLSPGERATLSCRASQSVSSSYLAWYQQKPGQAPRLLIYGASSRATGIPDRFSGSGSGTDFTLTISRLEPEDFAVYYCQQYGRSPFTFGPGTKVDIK
notes: full-length human IgG1 (CHO); also called aCTLA-4.4; CTLA4.A2
B6: antibody A3 (antibody, human IgG1, V domains shown)
VH: B5 VH with A23I, N31S, N35H, I51N, R56S, D101V
VL: not shown
notes: full-length human IgG1 (CHO); also called aCTLA-4.2; L3H3
B7: antibody A13 (antibody, human IgG1, V domains shown)
VH: B5 VH with N31S, N35H, H59D, F68I, D101L, W102L
VL: not shown
B8: antibody A8 (antibody, human IgG1, V domains shown)
VH: QVQLVESGGGVVQPGRSLRLSCAASGFTFSRYGMHWVRQAPGKGLEWVAVIWYDGRNKYYADSVKGRFTISRDNSKNTLYLQMNSLRAEDTALYSCARAGELGPFDYWGQGTLVTVSS
VL: EIVLTQSPGTLSLSPGERATLSCRASQSVSYLAWYQQKPGQAPRLLIYGASSRATGIPDRFSGSGSGTDFTLTISRLEPEDFAVYYCQQYGSSPWTFGQGTKVEIK
notes: full-length human IgG1 (CHO); also called aCTLA-4.1; CTLA4.A8
B9: antibody A11 (antibody, human IgG1, V domains shown)
VH: QVQLVESGGGVVQPGRSLRLSCAASGFTFSSYGMHWVRQAPGKGLEWVAVIWYDVGNKYYIDSVKGRFTISRDNSKNTLYLQMNSLRAEDTAVYYCARDYYGSGSPRHFDYWGQGTLVTVSS
VL: DIQLTQSPSFLSASVGDRVTITCRASQGISSYLAWYQQKPGKAPKLLIYAASTLQSGVPSRFSGSGSGTEFTLTISSLQPEDFATYYCQQLNSYPPTFGQGTKVEIK
notes: full-length human IgG1 (CHO); also called aCTLA-4.31; L11H11
B10: antibody A7 (antibody, human IgG1, V domains shown)
VH: QVQLVESGGGVVQPGRSLRLSCAASGFTLSSFGMHWVRQAPGKGLEWVAVIWYDGSNKYYADSVKGRFIISRDNSKTALYLQMNSLRAEDTAVYYCARAHYFGAFDIWGQGTMVTVSS
VL: not shown
notes: full-length human IgG1 (CHO); also called aCTLA-4.3; CTLA4.A7
B11: antibody A10 (antibody, human IgG1, V domains shown)
VH: B8 VH with A23V, F29L, R31S, R56S, Y59H, Y80S, L93V, S95Y, A99G, E101Q
VL: not shown
notes: full-length human IgG1 (CHO); also called aCTLA-4.22; L10H10
B12: antibody A5 (antibody, V domains shown)
VH: QVQLVESGGGVVQPGRSLRLSCAASGFTFSSYGMHWVRQAPGKGLEWVAVIWYDGNNKYYADSVKGRFTISRDNSKNTLYLQMYSLRAEDTAVYYCARGGILAAGIFDYWGQGTLVTVSS
VL: EIVLTQSPGTLSLSPGDRATLSCRASQSGSSSYLAWYQQKPGQAPRLLIYGASSRATGIPDRFSGSGSGTDFTLTISRLEPEDFAVYYCQQYGTSPFTSGPGTKVDIK
notes: full-length human IgG1 (CHO); also called aCTLA-4.28; CTLA4.A5
B13: antibody A4 (antibody, V domains shown)
VH: QVQLVESGGGVVQPGRSLRISCAASGFTFSSYGIHWVRQAPGKGLQWVAVIWYDGRNKYYADSVKGRFTISRDNSKNTLYLQMNSLRAEDTAVYYCSRSGSFGAFDIWGQGTMVTVSS
VL: B12 VL
notes: full-length human IgG1 (CHO); also called aCTLA-4.29; L4H4
B14: antibody A1 (antibody, human IgG1, V domains shown)
VH: QVQLVESGGGVVQPGRSLRLSCAASGFTFSSFGMHWVRQAPGKGLEWVAVIWYDGRNKYYVDSVKGRFTISRDNSNNTLYLQMNSLRAEDTAVYYCARGEFFGEFFDYWGQGTLVTVSS
VL: B12 VL with D17E, R18G, G29F, S32N, S99F

Assays:
[1] = target: T1, recombinant human CTLA-4-Fc (human, UniProt P16410 36-162); assay: blocking ELISA: plate-bound rhCTLA-4-Fc, mAb titrated, rhCD86-His binding detected
T1 construct: bought Fc chimera; also called rhCTLA-4-Fc; rhCTLA-4-Fc chimera; Fc part of the bought chimera not given
Description: (§1) Plates were coated with rhCTLA-4-Fc and then blocked with 1×PBST with 5% w/v nonfat dry milk. After blocking a dilution series of the indicated antibody was added to the plate.

[2] = target: human CTLA-4 expressed on cells (human, UniProt P16410 36-223); assay: cell-based or functional assay
mouse CTLA-4 = target: T2, mouse CTLA-4 (mouse, UniProt P09793 36-162, limits assumed); assay: BLI (Octet), captured mAb, soluble mouse CTLA-4
T2 construct: antigen of the anti-mouse CTLA-4 BLI measurements; also called murine CTLA-4
Description: The binding specificity and affinity of each full-length antibody towards CTLA-4 were determined using biolayer interferometry (BLI) and/or surface plasmon resonance (SPR). Anti-cyno CTLA-4 and anti-mouse CTLA-4 affinities were tested using ForteBio (BLI). Anti-human CTLA-4 affinities were measured using Carterra (SPR).
For BLI, antibodies were loaded onto an Anti-Human IgG Fc (AHC) biosensor using the Octet Red96 system (ForteBio). Loaded biosensors were dipped into antigen dilutions beginning at 300 nM, with 6 serial dilutions at 1:3. Kinetic analysis was performed using a 1:1 binding model and global fitting.

[3] = target: T1, recombinant human CTLA-4-Fc; assay: blocking ELISA: plate-bound rhCTLA-4-Fc, mAb titrated, rhCD80-His binding detected
Description: as §1

human CTLA-4 expressed on cells, sequence (P16410 36-223 limits assumed): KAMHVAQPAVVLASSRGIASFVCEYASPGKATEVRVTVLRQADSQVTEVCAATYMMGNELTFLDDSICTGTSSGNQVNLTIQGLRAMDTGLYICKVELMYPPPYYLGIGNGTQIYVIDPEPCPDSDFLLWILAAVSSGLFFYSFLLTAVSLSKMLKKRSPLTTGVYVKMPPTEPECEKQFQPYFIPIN
T1 sequence (P16410 36-162): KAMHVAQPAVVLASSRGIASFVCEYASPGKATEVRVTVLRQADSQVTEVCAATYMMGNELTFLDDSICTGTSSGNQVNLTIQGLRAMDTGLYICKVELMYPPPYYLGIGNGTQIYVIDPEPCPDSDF

Binder | CD86% inhibition [1] | Promega assay antagonist (EC50. ug/mL) [2] | binding result (mouse CTLA-4) | CD80% inhibition [3]
B1 | 54.5% | – | – | –
B2 | – | 0.19 µg/mL | no binding (tested: antigen dilutions beginning at 300 nM) | –
B3 | – | – | no binding (tested: antigen dilutions beginning at 300 nM) | –
B4 | – | 0.18 µg/mL | – | –
B5 | 91.5% | 0.12 µg/mL | no binding (tested: antigen dilutions beginning at 300 nM) | 95.4%
B6 | – | 0.18 µg/mL | no binding (tested: antigen dilutions beginning at 300 nM) | –
B7 | – | 0.09 µg/mL | – | –
B8 | – | 0.15 µg/mL | no binding (tested: antigen dilutions beginning at 300 nM) | –
B9 | – | 0.42 µg/mL | no binding (tested: antigen dilutions beginning at 300 nM) | –
B10 | 78.8% | 0.17 µg/mL | no binding (tested: antigen dilutions beginning at 300 nM) | 92.1%
B11 | – | 0.26 µg/mL | no binding (tested: antigen dilutions beginning at 300 nM) | –
B12 | 90.6% | 0.18 µg/mL | – | 96.3%
B13 | – | 0.15 µg/mL | no binding (tested: antigen dilutions beginning at 300 nM) | –
B14 | – | 0.13 µg/mL | – | –
